Measurements published in patent publication US20100330090A1.

Columns and labels:
[1] = molecular target: recombinant human Par-1 antigen (protease activated receptor-1) (human) (UniProt P25116); assay: BLI (ForteBio Octet), Experiment 1, Fab at 1E-8 M
[2] = molecular target: recombinant human Par-1 antigen (protease activated receptor-1) (human) (UniProt P25116); assay: BLI (ForteBio Octet), Experiment 2, Fab at 2.5E-8 M

Row | Binder | Kd [1] | koff [1] | kon [1] | Kd [2] | koff [2] | kon [2]
1 | LDS896 (Fab, V domains shown, Fab constant regions not given) VH: EVQLVQSGAEVKKPGSSVKVSCKVSGGTFSNYVFNWVRQAPGQGLEWMGVINPHSGRTRYNQKFKGRVTMTTDTSTSTAYMELRSLTSDDTAVYYCARDDGPSHWYFDVWGQGTTVTVSS VL: DIVMTQSPLSLPVTPGEPASISCRSSQSLLHRNGNNYLEWYLQKPGQSPRLLIYKISNRFSGVPDRFSGSGAGTDFTLKISRVEAEDVGVYYCFQGSHVPFTFGQGTKLEIK | 1.18 nM | 0.000311 s⁻¹ | 265000 M⁻¹ s⁻¹ |  |  | 
2 | LDS900 (Fab, V domains shown, Fab constant regions not given) VH: QVQLVQSGAEVKKPGASVKVSCKASGYTFNSYYMNWVRQAPGQGLEWMGVIDPHGGRTRYNQKFKGRVTMTTDTSTSTAYMELRSLTSDDTAVYYCARDDGPSLWYFDVWGQGTTVTVSS VL: DIVMTQSPLSLPVTPGEPASISCRSSQSLLHRNGNNYLEWYLQKPGQSPRLLIYKISNRFSGVPDRFSGSGAGTDFTLKISRVEAEDVGVYYCFQGSHVPFTFGQGTKLEIK |  |  |  | 1.47 nM | 0.000289 s⁻¹ | 196000 M⁻¹ s⁻¹
3 | LDW653 (Fab, V domains shown, Fab constant regions not given) VH: QVQLVQSGAEVKKPGASVKVSCKASGYTFNSYYMNWVRQAPGQGLEWMGVIDPHGGRTRYNQKFKGRVTMTTDTSTSTVYMELSSLRSEDTAVYYCARDDGPSMWYFDVWGQGTTVTVSS VL: DIVMTQSPLSLPVTPGEPASISCRSSQSLLHRNGNNYLEWYLQKPGQSPRLLIYKISNRFSGVPDRFSGSGAGTDFTLKISRVEAEDVGVYYCFQGSSVPFTFGQGTKLEIK |  |  |  | 1.13 nM | 0.000293 s⁻¹ | 259000 M⁻¹ s⁻¹
